The numbers were not newly measured in publication PMC3529988, which cites them from elsewhere.

The target of the data set is E2F TD (Homo sapiens) (UniProt Q01094).
UniProt Q01094, sequence (Q01094 368-437): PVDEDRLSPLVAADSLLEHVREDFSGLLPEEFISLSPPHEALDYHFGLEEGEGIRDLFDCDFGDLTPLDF

With Rb pocket (from UniProt P06400), the dissociation constant Kd is 50 nM.

Broadly, the Kd is a measure of binding affinity in units of concentration.
